Fewer inactive variants are shown than the library holds.
B1: TPR 5TU (parent)
chain: GGAUCUUCUCGAUCUAACAAAAAAGACAAAUCUGCCACAAAGCUUGAGAGCAUCUUCGGAUGCAGAGGCGGCAGCCUUCGGUGGCGCGAUAGCGCCAACGUUCUCAACUAUGACACGCAAAACGCGUGCUCCGUUGAAUGGAGUUUAUCAUG

Variants of: B1
Assay: polymerase ribozyme fitness, log enrichment relative to wild type (log ratio); higher = more active; in vitro selection for triplet polymerase activity
Outline: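 In triplicate, a single round of in vitro selection was run on each mutant library, PCR-built and transcribed, covering one subunit of a heterodimeric triplet polymerase ribozyme. Frozen incubation at −7 °C followed annealing with a biotinylated primer, partner subunit and triplets, and extended constructs were then gel-excised, streptavidin-captured and taken through RT-PCR. Fitness is the logarithm of genotype enrichment over wild-type enrichment, from inverse-variance-weighted replicate averages of Illumina-sequenced inputs and outputs. […] only genotypes with ≥10 input reads and ≥1 read per output were kept.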

Variant	polymerase ribozyme fitness (log ratio)
C85G C105U	-1.58
G83C G92C G100A U104G U146A	≤ -4.2
G84A C87G A110G	≤ -4.2
C85G A150C	-4.1
C85G A150G	-2.67
C85A C103G	-3.36
C85A C103A	-4.12
G84A G117A C129A	-2.45
G83A G92U A119G A122C C149G	-4.14
C85A C116U A122C	-4.17
G84C C118A C125U G136U	-4.09
C85A C116U	-1.08
C85G C99U G140U	≤ -4.2
G83U G128C	-3.55
G83U A91U A120U A138U	≤ -4.2
C85A U104A A115G	-3.42
G83C U102G	-4.12
C85A C95U	-1.98
G84A C116G A121U	0.52
C85G A121U	-3.11
G83C C118A	-1.14
G84A G94C	-1.72
G83U C116U A122C	-2.43
G84A A115U U134G	-4.01

Variant	polymerase ribozyme fitness (log ratio)
G84A G152A	-2.93
C85A C96U	-2.63
C85A C96G	-2.42
G84A A91G A122C	-3.61
C85A G143A	-1.99
G84C U102A A147U	-3.01
G84U U102G A110G	≤ -4.2
G84A C103G	-2.32
G84A C103U	-2.51
C85G A98G	-0.929
C85G A98U	-2.9
G83C A113U U145C	-3.3
G83C A97U C103G U139C	≤ -4.2
G83C C95U G136A C149U	-2.18
C85A G86U	-3.2
C85G A107G	≤ -4.2
G84U C85G C96G	-3.84
G83A G117C	-0.0387
G83A C131U U139A G143A	≤ -4.2
G83A G140C	-3.99
C85A C96A U101C G143A	≤ -4.2
G84U G117U C123A	-1.62
G84U U134A U144C A150U	≤ -4.2
G84A U101C U146A	-0.212

Variant	polymerase ribozyme fitness (log ratio)
C85G C103A	≤ -4.2
G84A U102G C125G	-3.78
G84U G141C U144A	≤ -4.2
G84A U102A C132U	-2.3
G84U G141C	-2.49
G83U C114G A115U A119U U134A	≤ -4.2
G84A C116A	0.83
C85G C87U	-3.28
C85A A115G	-2.38
C85G C99U	-3.51
C85G C99A	-3.3
G84A U139A	-4.11
C85A C87G G88C A97G U130G G141C	≤ -4.2
G84A G126A	0.571
G84A G126U	-0.0664
G84A A142U	-0.702
G83U G141C	-1.18
G84A C87A	≤ -4.2
C85A C103A C125A	-3.33
G83A G92U C96A A147C	-3.05
G83A G136A	-0.0141
C85A G133C	-3.5
C85G C87U U145G	-3.08
C85A G117U	-0.587

Variant	polymerase ribozyme fitness (log ratio)
G84A A89G A98G C114U	-2.55
C85G G92C G128A	≤ -4.2
G83A G141A	0.227
G84U A150G	-2.7
G83A C129G	-3.81
C85A G140C	-3.64
G83C G117U C131U	-0.254
G83A G92U G133C A142G	-3.79
G84A A147G	-2.67
G84U A89U A98U G126U	-0.825
C85A U139C	-4.1
G84C U101A A122G G126U	-3.41
G83U C85A	-3.55
C85G A98U C129A U134C	-4.18
C85G A122G C123A	-2.57
G83C U104G C118A	-3.08
C85A C96A G128C	-4.03
G84A G141A	-0.675
G83U G94A U127C	-3.92
G83U U104C	-0.855
C85A C114U	-3.28
G84U C99U	-1
G84A A121G C123U C131U	0.94
G84A A120U C123A G126U	0.597

Variant	polymerase ribozyme fitness (log ratio)
C85A C105U A150G	-2.08
G84A C125A C132A G140U	-1.25
G84A G143A	-1.65
G84A U109G C114G U135G	≤ -4.2
C85A G141A U146G	-1.68
G83A G143A	-1.28
G83U C103U C116A G117A U148A	≤ -4.2
G83U U135A	-1.05
G83A U101G U135C C149A	≤ -4.2
G84U G88A	-4.15
G83C A89C G126A	-0.834
G83A C125U	-1.29
G83C C99G	-3.88
C85A G133C U134G U145G	≤ -4.2
C85A A97U	-2.65
G84A C93G	-3.77
G83C U101A	-1.07
G83A G88C A91G C95U A137G	≤ -4.2
C85A C108U	-3.66
G83C C87G C114U A120U A138G	≤ -4.2
C85G C103A G140U	≤ -4.2
G84A C93G C125A G133U	≤ -4.2
C85G C96A A97G U102A C132A U135A	≤ -4.2
C85G C116U U144G	-0.537

Variant	polymerase ribozyme fitness (log ratio)
C85A U135G	≤ -4.2
G84U C87G	-3.88
C85G G112C A138U C149A	≤ -4.2
G83C G143U	-2.8
C85G A115U	-3.56
G83U C93G A121U	≤ -4.2
G84U A91G	-2.81
G84A U109A A115C C123A	-1.8
G84A A98U	-0.469
G83A C118G	-0.683
C85A C103U C123G A147U	-0.703
G83U C118A	-1.04
G83C G86A C95A A120C	≤ -4.2
G83U A97U C105U G117U G141U	≤ -4.2
G84A G112C	-2.71
C85A G86U A110C C131A	≤ -4.2
G83C C85U C87U	-2.71
G84A U101G A122U U146C	-0.376
G83A C132U	-0.931
G83A G94A	-1.17
G83U C95U C116U	-2.67
G84A U101G	-0.429
C85A C105U G141C	-3.45
C85A A106C G140C	≤ -4.2

Variant	polymerase ribozyme fitness (log ratio)
G84U G126A G136U	-3.56
G83C G124A A137G	-1.97
G84A G94A C125A	-1.7
G84U C116G	-1.58
G84U C116U	-2.7
C85G A98U G124U A147C	-2.53
G83A C116U	-0.551
G84A C87U C95G A142C	-2.26
C85G C123U G141A	-0.441
G83U A91C	≤ -4.2
G84A U102C C105A A107G	≤ -4.2
C85A U130G	-3.53
G84A C108U	-2.74
C85G A122G	-3.42
G84C C93U	-4.07
G84U A122C	-2.13
G83A C118U G126A	-2.89
G84A U127A	-3.74
G83C A121G	-0.25
C85G A107U G126U C132U	≤ -4.2
G83C G140U	-4.01
G83C A107U G143A U146C	≤ -4.2
G83C C95U	-1.81

Source: the RNAGym collection of RNA variant scans (doi:10.1073/pnas.2313332121)
